# Measurements published in patent US20240116985A1 (published 2024).
# Starred links: 1 amine or outer side, 2 acyl side, 3 side chain; linkers in the order of their positions; H or OH if unused. Positions of bridges follow the written chain, without caps; N, C: chain ends. Non-standard residues stand in square brackets, D forms with d. Primed or numbered codes have the meaning given here. PyrS2(3) = (S)-3-amino-1-((pent-4-en-1-yloxy)carbonyl)pyrrolidine-3-carboxylic acid, stapling residue, C=CCCCOC(=O)N1CC[C@@](N[*:1])(C(=O)[*:2])C1; PyrS2″ = (S)-3-amino-1-((pent-4-en-1-yloxy)carbonyl)pyrrolidine-3-carboxylic acid (stapling residue), C=CCCCOC(=O)N1CC[C@@](N[*:1])(C(=O)[*:2])C1; B5(24) = 2-amino-2-(pent-4-en-1-yl)hept-6-enoic acid, 2,2-bis(4-pentenyl)glycine (stitching residue), C=CCCCC(CCCC=C)(N[*:1])C(=O)[*:2]; B5(4) = 2,2-bis(4-pentenyl)glycine = 2-amino-2-(pent-4-en-1-yl)hept-6-enoic acid (stitching residue), C=CCCCC(CCCC=C)(N[*:1])C(=O)[*:2]; TfeGA = (S)-2-amino-3-((carboxymethyl)(2,2,2-trifluoroethyl)amino)propanoic acid, O=C([C@H](CN(CC(=O)[*:3])CC(F)(F)F)N[*:1])[*:2]; PyrS2 = (S)-3-amino-1-((pent-4-en-1-yloxy)carbonyl)pyrrolidine-3-carboxylic acid, C=CCCCOC(=O)N1CC[C@@](N[*:1])(C(=O)[*:2])C1; F2PipNva = (S)-2-amino-5-(4,4-difluoropiperidin-1-yl)pentanoic acid, O=C([C@H](CCCN1CCC(F)(F)CC1)N[*:1])[*:2]; B5(3) = 2,2-bis(4-pentenyl)glycine (stitching residue), C=CCCCC(CCCC=C)(N[*:1])C(=O)[*:2]; B5″ = 2,2-bis(4-pentenyl)glycine, stitching residue, C=CCCCC(CCCC=C)(N[*:1])C(=O)[*:2]; Asp(OEt)″ = aspartic acid side-chain ethyl ester, CCOC(=O)C[C@H](N[*:1])C(=O)[*:2]; Asp(OMe) = [Me]AspE, Asp side-chain methyl ester, COC(=O)C[C@H](N[*:1])C(=O)[*:2]; Phe(3-CF3) = N[C@@H](Cc1cccc(C(F)(F)F)c1)C(=O)O; Phe(F5) = N[C@@H](Cc1c(F)c(F)c(F)c(F)c1F)C(=O)O; Phe(3-COOH) = N[C@@H](Cc1cccc(C(=O)O)c1)C(=O)O; 2F3MeF = Cc1cccc(C[C@H](N[*:1])C(=O)[*:2])c1F; Phe(3-CN) = N#Cc1cccc(C[C@H](N)C(=O)O)c1; Phe(3-OMe) = COc1cccc(C[C@H](N)C(=O)O)c1; Phe(4-CN) = N#Cc1ccc(C[C@H](N)C(=O)O)cc1; Phe(2-CN) = N#Cc1ccccc1C[C@H](N)C(=O)O; Phe(2-Cl) = N[C@@H](Cc1ccccc1Cl)C(=O)O; Bta = N[C@@H](Cc1csc2ccccc12)C(=O)O; Lys(iPr) = CC(C)NCCCC[C@H](N)C(=O)O; αAllylPro = C=CC[C@@]1(C(=O)O)CCCN1; tBuAla = CC(C)(C)C[C@H](N)C(=O)O; 3Thi = N[C@@H](Cc1ccsc1)C(=O)O; Cha = N[C@@H](CC1CCCCC1)C(=O)O; S8 = C=CCCCCCC[C@](C)(N)C(=O)O; R5 = C=CCCC[C@@](C)(N)C(=O)O; hSer = N[C@@H](CCO)C(=O)O; Aib = CC(C)(N)C(=O)O
# T1: B-cat-Halo (UniProt P35222 1-781)
# T1 sequence (looked up): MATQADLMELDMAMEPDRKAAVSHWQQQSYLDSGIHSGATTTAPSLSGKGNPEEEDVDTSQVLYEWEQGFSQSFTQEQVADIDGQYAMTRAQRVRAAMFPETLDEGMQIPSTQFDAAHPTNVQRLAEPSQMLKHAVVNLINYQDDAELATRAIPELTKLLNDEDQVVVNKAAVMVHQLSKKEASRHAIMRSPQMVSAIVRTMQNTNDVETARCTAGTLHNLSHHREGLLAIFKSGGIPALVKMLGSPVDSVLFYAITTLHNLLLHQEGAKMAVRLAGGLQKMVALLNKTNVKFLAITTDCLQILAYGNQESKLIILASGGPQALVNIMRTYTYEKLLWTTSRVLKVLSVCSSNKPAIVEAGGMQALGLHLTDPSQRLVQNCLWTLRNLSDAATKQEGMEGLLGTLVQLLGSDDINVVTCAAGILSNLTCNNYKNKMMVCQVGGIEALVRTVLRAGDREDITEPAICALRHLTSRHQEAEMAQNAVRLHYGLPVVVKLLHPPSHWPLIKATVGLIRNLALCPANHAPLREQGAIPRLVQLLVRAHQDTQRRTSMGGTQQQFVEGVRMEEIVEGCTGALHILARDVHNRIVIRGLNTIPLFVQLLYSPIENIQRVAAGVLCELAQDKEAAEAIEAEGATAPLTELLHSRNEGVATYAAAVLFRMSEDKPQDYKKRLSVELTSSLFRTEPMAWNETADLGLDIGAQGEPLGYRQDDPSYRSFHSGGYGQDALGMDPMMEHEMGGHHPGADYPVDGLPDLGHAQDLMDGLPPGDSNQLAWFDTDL
# T2: B-cat-Halo (beta-catenin HaloTag construct expressed in HEK293 cells) (UniProt P35222 1-781)
# T2 sequence (looked up): T1 sequence (looked up)
# T3: B-cat-Halo (UniProt P35222 1-781)
# T3 sequence (looked up): T1 sequence (looked up)
# T4: B-cat-Halo (beta-catenin HaloTag fusion expressed in HEK293 cells) (UniProt P35222 1-781, HaloTag NanoBRET 618 Ligand bound to the HaloTag)
# T4 sequence (looked up): T1 sequence (looked up)
# B1: I-1125 (peptide)
# peptide: Ac-[αAllylPro]D[Cha][B5(3)]DDAA[Phe(3-CF3)]S[PyrS2″]F[Bta]Q-NH2
# modifications: staple 1-4, 4-11
# B2: I-1137 (peptide)
# peptide: Ac-[αAllylPro]D[Cha][B5(24)]DDAAFS[PyrS2″][Phe(2-Cl)][Bta][hSer]-NH2
# modifications: staple 1-4, 4-11
# B3: I-1130 (peptide)
# peptide: Ac-[αAllylPro]D[tBuAla][B5(24)]DDAAFN[PyrS2″][Phe(2-Cl)][Bta][Lys(iPr)]-NH2
# modifications: staple 1-4, 4-11
# B4: I-1136 (peptide)
# peptide: Ac-[αAllylPro]D[Cha][B5(24)]DDAAFS[PyrS2″][Phe(2-Cl)][Bta][dT]-NH2
# modifications: staple 1-4, 4-11
# B5: I-1131 (peptide)
# peptide: Ac-[αAllylPro]D[tBuAla][B5(24)]DD[Lys(iPr)]AFN[PyrS2″][Phe(2-Cl)][Bta]Q-NH2
# modifications: staple 1-4, 4-11
# B6: I-1138 (peptide)
# peptide: Ac-[αAllylPro]D[Cha][B5(24)]DDAAFS[PyrS2″][Phe(2-Cl)][Bta]L-NH2
# modifications: staple 1-4, 4-11
# B7: I-1124 (peptide)
# peptide: Ac-[αAllylPro]D[Cha][B5(3)]DDAA[Phe(3-OMe)]S[PyrS2″]F[Bta]Q-NH2
# modifications: staple 1-4, 4-11
# B8: I-1132 (peptide)
# peptide: Ac-[αAllylPro]D[tBuAla][B5(24)]DDA[Lys(iPr)]FN[PyrS2″][Phe(2-Cl)][Bta]Q-NH2
# modifications: staple 1-4, 4-11
# B9: I-1139 (peptide)
# peptide: Ac-[αAllylPro]D[Cha][B5(24)]DDAAFL[PyrS2″][Phe(2-Cl)][Bta]T-NH2
# modifications: staple 1-4, 4-11
# B10: I-1186 (peptide)
# peptide: Ac-[αAllylPro]D[tBuAla][B5″]DDAAFN[PyrS2(3)][Phe(F5)][Bta]Q-NH2
# modifications: staple 1-4, 4-11
# B11: I-1200 (peptide)
# peptide: Ac-[αAllylPro]D[tBuAla][B5″]DDAA[Phe(2-CN)]L[PyrS2(3)][3Thi][Bta]Q-NH2
# modifications: staple 1-4, 4-11
# B12: I-1202 (peptide)
# peptide: Ac-[αAllylPro]D[tBuAla][B5″]DDAA[Phe(4-CN)]L[PyrS2(3)][3Thi][Bta]Q-NH2
# modifications: staple 1-4, 4-11
# B13: I-1185 (peptide)
# peptide: Ac-[αAllylPro]D[tBuAla][B5″]DDAAFL[PyrS2(3)][Phe(F5)][Bta]Q-NH2
# modifications: staple 1-4, 4-11
# B14: I-1195 (peptide)
# peptide: Ac-[αAllylPro]D[tBuAla][B5″]DDAAFL[S8][3Thi][Bta]H-NH2
# modifications: staple 1-4, 4-11
# B15: I-1188 (peptide)
# peptide: Ac-[αAllylPro]D[tBuAla][B5″]DDAAFL[S8][3Thi][Bta]Q-NH2
# modifications: staple 1-4, 4-11
# B16: I-1181 (peptide)
# peptide: Ac-PD[tBuAla][R5]DDAAFL[PyrS2(3)][3Thi][Bta]Q-NH2
# modifications: staple 4-11
# B17: I-1201 (peptide)
# peptide: Ac-[αAllylPro]D[tBuAla][B5″]DDAA[Phe(3-CN)]L[PyrS2(3)][3Thi][Bta]Q-NH2
# modifications: staple 1-4, 4-11
# B18: I-1187 (peptide)
# peptide: Ac-[αAllylPro]D[Cha][B5″]DDAAFT[PyrS2(3)][Phe(F5)][Bta]S-NH2
# modifications: staple 1-4, 4-11
# B19: I-1602 (peptide)
# peptide: Ac-[αAllylPro]N[tBuAla][B5(4)]DT[Lys(iPr)]AFN[PyrS2]F[Bta]Q-NH2
# modifications: staple 1-4, 4-11
# B20: I-1607 (peptide)
# peptide: Ac-[αAllylPro]D[tBuAla][B5(4)]D[TfeGA]AAFT[PyrS2][Phe(2-Cl)][Bta][F2PipNva]-NH2
# modifications: staple 1-4, 4-11
# B21: I-1608 (peptide)
# peptide: Ac-[αAllylPro]D[tBuAla][B5(4)]D[Phe(3-COOH)]AAFL[PyrS2][2F3MeF][Bta][F2PipNva]-NH2
# modifications: staple 1-4, 4-11
# B22: I-2338 (peptide)
# peptide: Ac-[αAllylPro]D[tBuAla][B5(3)]NT[Aib]AFN[PyrS2″][3Thi][Bta]Q-NH2
# modifications: staple 1-4, 4-11
# B23: I-2354 (peptide)
# peptide: Ac-[αAllylPro]N[Cha][B5(3)]DQ[hSer]AFL[PyrS2″]F[Bta]Q-NH2
# modifications: staple 1-4, 4-11; also: earlier eluting isomer, configuration not given here
# B24: I-2357 (peptide)
# peptide: Ac-[αAllylPro]D[tBuAla][B5(3)][Asp(OEt)″]DAAFL[PyrS2″][3Thi][Bta]Q-NH2
# modifications: staple 1-4, 4-11
# B25: I-2350 (peptide)
# peptide: Ac-[αAllylPro]N[Cha][B5(3)]DQ[Lys(iPr)]AFL[PyrS2″]F[Bta]K-NH2
# modifications: staple 1-4, 4-11
# B26: I-2359 (peptide)
# peptide: Ac-[αAllylPro][Asp(OMe)][tBuAla][B5(3)]DDAAFL[PyrS2″][3Thi][Bta]Q-NH2
# modifications: staple 1-4, 4-11
# B27: I-2341 (peptide)
# peptide: Ac-[αAllylPro]N[Cha][B5(3)]D[TfeGA][Lys(iPr)]AFL[PyrS2″]F[Bta]Q-NH2
# modifications: staple 1-4, 4-11
# B28: I-2336 (peptide)
# peptide: Ac-[αAllylPro]D[tBuAla][B5(3)]N[Phe(3-COOH)]AAFT[PyrS2″][3Thi][Bta]Q-NH2
# modifications: staple 1-4, 4-11
# B29: I-2340 (peptide)
# peptide: Ac-[αAllylPro]N[Cha][B5(3)]D[Phe(3-COOH)][Lys(iPr)]AFL[PyrS2″]F[Bta]Q-NH2
# modifications: staple 1-4, 4-11
# B30: I-2358 (peptide)
# peptide: Ac-[αAllylPro]D[tBuAla][B5(3)]D[Asp(OEt)″]AAFL[PyrS2″][3Thi][Bta]Q-NH2
# modifications: staple 1-4, 4-11
# Target: T1, B-cat-Halo
# Experiment: cell-based or functional assay
row,NanoBRET Abs IC50,Binder
1,> 20 µM,B1
2,12 µM,B2
3,7.6 µM,B3
4,14.9 µM,B4
5,18.8 µM,B5
6,19.8 µM,B6
7,> 20 µM,B7
8,> 20 µM,B8
9,18 µM,B9

# Target: T2, B-cat-Halo (beta-catenin HaloTag …)
# Experiment: cell-based or functional assay
row,NanoBRET Abs IC50,Binder
1,23.6 µM,B10
2,> 20 µM,B11
3,16.3 µM,B12
4,26.9 µM,B13
5,16.2 µM,B14
6,7.2 µM,B15
7,> 20 µM,B16
8,19.6 µM,B17
9,28.6 µM,B18

# Target: T3, B-cat-Halo
# Experiment: cell-based or functional assay
row,NanoBRET Abs IC50,Binder
1,> 20 µM,B19
2,11.9 µM,B20
3,15.1 µM,B21

# Target: T4, B-cat-Halo (beta-catenin HaloTag fusion …)
# Experiment: cell-based or functional assay
row,NanoBRET Abs IC50,Binder
1,> 20 µM,B22
2,> 20 µM,B23
3,> 20 µM,B24
4,> 20 µM,B25
5,> 20 µM,B26
6,> 20 µM,B27
7,14.4 µM,B28
8,> 20 µM,B29
9,52.2 µM,B30
